In a protein production outcome set (Wang et al. 2014):

assay: label from the status in PepcDB records

Sequence	protein production
MVKGLVVAGALLMASGCQMLQSMMPAGDEEMPRVREGTLAALPATETRQVQGIEAGSGPTDDVSIETVMESYKALLPLVDDPRKQVTIRHRLADLEFQRAERKMADTAVDELAGAIEAYQRLLSEYPEREGNDKIYYQLARAWELRGATPQQLDTLDTLVRRYPDSDYWIEAQFRRGDLLFIDGRYREAEQAFDEVTLASQERMADASFLVNAHYMKGWSLFKQAQYQEALFSYVEVLDLVMPEGQPVEDVDQRSQTLIEDLFRVVGLSLSYLDGAETLQALFRQTGGRPYEILVYDRYSELLVEREQYGDAIDVFEAYIEDHPASPWAPRYHIRIIDTLELAGFTRTVPERKADFVSLYGIYSDYWQSAGPDAMGFIEQQLEQLLPELADRQYLLAGESSDQQQADDHYRKAASYYAEFAATFPDHPRTPERLFLLGETYLELEDWAEAIAAFERVAYDYPQDTVSGRAAEAGYASVLAFREYSITWNSLPISEQAAYQELQQLNRLRFANAFPEDPRAPAVYYIALQHEFDRNNWEETVNMAARLVTWQPTPSAELTTEALLLSGHSLSELARYSEAEQAYRDALATMAEDDERRSGVRENLAAAVYRQAEQLADAGNVEAAVGEFLRVGTVVPESALRANAEYDAASLLITANLWEQAIGVLTSFRQAFPDHELIDTVPAKLALAYRETAQWERAADELQQMVALATTPEERRENLLIAAELYDQAGNRDKAIDTWRNYANSHPEPADVYMEAANRLAELYQEADDTVKRDYWLRKQMETVDRNPDAADDRMRYLAASASATLAREALARYDSIRLTLPLNESMTAKTDALERAVNAYKKTASYGLSSFATEAGYQIAHIYGRLGADLMDSERPTGLSELELAQYELLLEEQAYPFEDNAIDIHEQNIRRAREGIFDEWVKRSYEALKVLLPGRYRKEEVTSGVVYELD	failed
MVKKSYVINWARDLANRGVGVNYDGAFGSQCVDLPFWILGKFFGRPISGNAIDLLNSAKAAGYQVIYDAPGVNPRVGDIFVMHSIAYDGKDYGHTGLVIEDSDGHSIKTIEQNVDGNADNLYVGGPARYRTRSFNGIIGWIRPPYENEILENKREETDMRDFFVITNSEYTFAGVHYAKGAVLHVSPTQKRAFWVIADQENFIKQVNKNIEYVEKNASPAFLQRIVEIYQVKFEGKNVH	not failed
MVKPLRLNDRHQQILRATVQHYIATAEPVGSHTLAQEYQFAVSSATIRNALGQLEKAGLLYQPHVSAGRVPSDSGYRIYVDNLLTWSDRQSRTVKQRLENEINGDNWHFEALIQRMGQILAGLSGYIALITFPQTETVQLRHLQLMLLPSHQILIILVTDSYHTHSATLDLPAAMEAKEEGELEQELAIFSNFLNAQLRGKNLSELSHLNWQELDQKFSIYADFLKGLQQQIKPLLQRRMAGPLVVHGVSKVIQQPEFSQLEQVQMLLSLLEQEQDKLFSLLFDPDNYGDNLANLGQEMNLLTGETMPKTRPVVTIRIGAENPLESMHPCTLVSAIYRQQEIPMGSVSILGPTRMVYQQTIPLVEQAAECLSEALSKN	failed
MVKSIVILIETVTMKIPAVYSDGSFKTFNDSETTAQKLVDSGVVNTFAFGPTLVENGKVAVSENEEVGQDMADNPRTAIVVNEESDRSVHYIVIVSDGRTSESSGLTLYEMAELMKSYGVMTGYNLDVGDSSTMYSNGQVINKPTRKRKQNLRKGGERYRLHRLLKNLLASTFSPPILVLEHHHHHH	not failed
MVLFHLIKKESLQIFRNRTALLMMVIFPILMIVILSFAFKSSFNTATTVPKLTIRYQLEGEKTDYQKNFLAFLKVLNQKLHLETKPSNSLEKDRQRVSEGALTAVLEVKKNQTIKVITNNINQQNADLINMLVKNYVDNAKTYDSIAALYPQQLNHIRKRSVDYVKVSSIQTSKGMTSADYYAISMFTMITFYSMMSAMNLVLSDRQQRITNRIHLTGVSPSFLVFGKLIGAMLATTVQLSLLYIFTRFVLRVNWGTNEWMLIGITASLVYLSVAIGIGLGISIKNEAFLTVASNTIIPIFAFLGGSYVPLTTLHSSIINQLSNISPIKWVNDSLFYLIFGGQYNPIPVTLIVNISIGTIFIILALIGMRKQVTT	failed
MVLKERHKKICLLPSYSRLAHYPGLLMLTTLIYRSHIRGDEPVKKIEEMVSIANRRNMRSDVTGILLFNGSHFFQLLEGPEEQVQMIYRAICQDPRHYNIVELLCDYAPARRFGKAGMELFDLRLHERDDVLQAVFDKGTSKFQLTYDDRALQFFRTFVLATEQSTYFEIPAEDSWLFIADGSDKELDSCTLSSNINDHFAFHPIVDPLSRRIIAFEAIVQKNEDSPSAIAVGQRKDEEIYTADLKSKALAFAMAHALKLGDKMISINLLPMTLVNKPDAVSFLLDEIKANALVPEQIIVEFTESEVISRFDEFAEAVKSLKAAGISVAIDHFGAGFAGLLLLSRFQPDRIKISQELITNVHKSGPRQAIIQAIMKCCTSLEIQVSAMGVATPEEWMWLESAGIEMFQGDLFSKAKLNGIPSVAWPEKK	failed
MVLVILDFVVEWRDRVMVRWWSLLLDQGIEWSVKVVKRLLDQGVEWFDMIRGCQSSPLLLLAIKMCTEATKSSQIIMMGVNLRSLKDGFIDKGNSRVHLMANMRKANSLDDDSKPDIHSRDRDPHNYTTS	failed
MVMARNRNSNQLASHGAQAALDQMKYEIAQEFGVQLGADTSSRANGSVGGEITKRLVAMAEQQLGGGYTRLEHHHHHH	not failed
MVMMFIGIDDTDSPNKYCTTYIATLLIEELKGCGYSVDMPKLIRMNPMVKYKTRGNGGVAIHILDELYSKDKEEIKNITISLVEKYTDFECENTNPGIVFLDEAKYKENREKLTNYYKKVLYDIVSVDYAEKFILKVGGEFIKYKLGRGIIGALGAISSTPPYTYELLAYRKKEMWGKKREIDEKSVIEMDKETFPYTFDNYDYENEKILIAPNTPCPVLFGIRGIDAEILLKAMHKIEGEKPERFMIFKTNHGTDVHLRKMNIKDIYPNTGVIVYGRVVEEPRDIEGGHVIFKLSDGTGEIDCMAYEPTKGFRDIIRKLIVGDYIAVYGTVREKPLGINIEKIKILKLEKKFVKDKRCPYCGGTLKAKGKKAGYKCKKCKKTIAYDEIKMIEVERDLKTGFYEVPGSARRHLSKPIQLIDLI	not failed
MVMNKLILFGSIFFKCWQQNRISISAGYLTYNTMLALVPLVMVVFSVFTFFPIFTEATELLKTFVYDNFAPNAGNVVEEYVELFVSNSQKMGLVSMLGLFIVAVMLISSIDQSLNDIWHNTRKRSLLLSFLLYILILIFAPLLAGASIAITTYIMSFEVFSENGIFSFSHYLLEYAPFLLVWLLFTLVYWIVPNTTVAFRHATIGALFAASFFTLGKQAFIWYVVTFPSYQAIYGTLAVLPIMIVWIHLSWQVVLLGGQFAAVLKEINMLKENER	not failed
MVNNDTLSGDVYTASEAKQVQNVSYGTIVNVRPVQIQGGDDSNVIGAIGGAVLGGFLGNTVGGGTGRSLATAAGAVAGGVTGQGVQSAMNKTQGVELEIRKDDGNTIMVVQKQGNTRFSPGQRVVLASNGSQVTVSPRLEHHHHHH	failed
MVNPIATGILVLAALYFARSILMPLAFSLFVIALAWPIQMALQRRIPRLAALLITLLLVVLVIVIVGSAIVWGLGELSQWLFYNTGRLQAIYASWTDWLEGHGIAIVSPLGELFSISRLVGLTHSLVTRLNSVAGFAVLTFIFVMLGLLEAEDLQRRLRSSLAQPQGEMLLHIGREIAGKIRRFMVVRSLACILTGLVVWAFTLVAGLELASAWAAIAFALNYIPFIGPLMATIFPTLFAIAQSGSWQLALIVFVGLNVIQFAIGSYLEPFLTGASLAISPFAVMFAVFFWSFMWGVPGAFIGVPILIVVVTWCAHEQSTRWIATLLSGGRQST	failed
MVNQPLVSIIIPAYRAENTIAFTVRSVLAQTYDHWQVAIGVDDQVDYLQLLAEQGINDPRLKQVFTGGIGSGEAIARNKAVSICDGDILANLDADDAFASDRLEKLVPLAEKYGVAIDNTGVYNSELVLYKQPFPQRQALNFATAADILSPRIPFFPVFQRQLLGDGWTKVPFAADVLFNLELLSRTEKVAIHPEPLYRYYKRDNSITQSANAFETAEKAYLTILSLLDEGALTLTDAIRQAARQEFSENLALNKVFRRYMEEGRCQNLEQFLDMTNNGQKIEFVSNLNLEHHHHHH	not failed
MVNTRTRMSAIVATLGLVGSLALATASADESRTSGSAAQIALTEVARAQNPTAGAAGPQDTVWIAERAGTVRVLGDDGLGEPVLDISDETTTDGERGLLGLAFDERFAHLYLSYTDLEGTSTVDEFAVQDGTVREDTRRTVLTQEQPESNHNGGAITFGPDGYLYIALGDGGGGGDPQGNGQKLDTLLGKLLRIDPQGGDPYAIPEDNPFADDPDARGEIWSYGLRNPWRFSFDAGSGDLLIGDVGQSDWEEIDWAPASSPGGENYGWSQMEGTHPFRGGTEPANHVPPIHEYDRTGLGCSVTGGYVYRGEAVPGLAGQYVYSDYCDGTLRSLEIEDGRVTGEHDLGVNGGEVVSFAQDGDGELYVLAIGGTVSRVDPA	failed
MVNVFYEEAGALKVGSILTDNTTSLQIESAHGKRSKIKAALVLLRFENPPMHGFMQQAQEKAADIDVNFLWECCEENREFTGQELAGDYFGHTPDPLETAAILILLSQNPIYFHKKGVGRFKAAPPEILQAALASREKKRLAEEKQAGYVQQLMAFELPDTFRPLLDDLLYKPDKNTIEWKALETACDATRLSVPRLLERCGAIPSTHDYHYNQFLYEHFPEGIDTDAYPADFHLLDPEDLPVAGVKAFSIDDATTTEIDDAFSVTPLNFGSFRIGIHIATPALGVAPHSLLDKFAAKRLSTVYLPGRKITMLPESVIQHFTLGEAHHRPVLSLYLEVADDFTVTRTFSRIETIEVSTNLRLDSLERQFNEITLRENQTDYPFAHELRLLWNFSCKMEKLRGKDQDINSEKIDYSFIIDQDRVSVYERRRGAPIDKVVSELMIFANAEWGKQLADAGYAGIYRSQGNGKVKMSLSPAPHQGLGVSQYAWSSSPMRRYVDLINQRQLIALVSGNPPPYTREDDTLLIAMRDFEMAYATYAEFQRGMERYWCLRWLLQENISTSGAIVIKENMIKLDRLPLIVRIPSLPELAPGTLVAVGVSQIDLIDRSLNASFLGKSEG	failed
MVPLPRSMRVLHWLTVLCLVMAASLILLRAELEGRALRQWLLEGHRHFGLMVLLLFVLRVSLRLRLRALPPGPPSPLIMRLAAGGTHVAMYALMLALPLIGWSLSNAYGKTVYLFGITLPNLVAADEDLADTLGTWHLNAAWALLALVAVHIVAALVHHLVLRDGLLHRVLPGKHHR	failed
MVPRFATLGRIPKGVWVLGGVSLLMDVSSEMIHSLLPLFMATTLGASVIIIGLIEGLAEATALILKVFSGAISDYVGKRKGLALLGYGLGALSKPLFAIAPTAGVVFSARMIDRVGKGIRGAPRDALVADVTPPEIRGAAYGLRQALDTVGAFLGPLLAVLLMFIWANDFHAIFWVAVIPAVLSILLLGFGLQEPKSAIAHKRSNPLKRENLKKLSAAYWWVVAIGSIFTLARFSEAFLVLRAQQMEIPLYTIPLVMVAMNLVYSLTAYPFGKLSDSMSHSKLLQWGLLVLILADIVLALSGHWSTLLIGVALWGIHMGMTQGLLAAMVAHTAPPELRGTAFGMFNLMSGLALLLASTGAGVLWETFGAASTFYAGAIICVVTLIGMRVMPSAYRQD	not failed
MVPSASDAWRTALRDLRETLPERTVQNWLDPIQPLDLSTDEGSPTLTLQVPTPFGIQYLRSRFQRSIRQAVSEAVGEPTDVTYQVAPEEERPDEIATDSGSSGSAPDEPDASSSPQDRPSSAPSSDQAGRSSTSPRPSEPVSSSSPAGREAINQSPSPDASTSGGASSPTGPTTPRPSSPDVADVSDAGRTDDASAPSPPQTDAGSPDERSALYEQAKQHLRPEYTFDEFVEGDGNRLARSAAFAVAQEPGSTNYNPLLVYGGVGLGKTHLAQAVANYALEHNTAERVLYVSSDRFTSQFVQSVRENRIAAFSSYYRQADLLIVDDVQFFGEKEKTQEEFFHIFNDLHQNGKQIFLCADRPPAEIPGIEERLLSRFQWGLSADIQRPDLETRIAILQRKAARQDIAVSPDVLELIAQRIDSNVRQLEGALTRLTALVQLDDRTLDLDTARRFLREHTDEGADALNADDIIEQVAEYFRLEKGDLLSRSRKQTVAQARQIAMYLCRELTDESYDHIGSRFGGRDHSTVIHAYRKIEEDLESDTELQDDISSLQSNLQDRSLSSSL	failed
